Experimental data reported in article PMC12298754.

What was measured:
[1] = target: PD-L1 protein on 4T1 cells (programmed cell death ligand-1) (mouse (endogenous in 4T1)) (UniProt Q9EP73); experiment: radioligand binding; competition on 4T1 cells adhered to 96-well plates, 37 °C, 1 h; [18F]AlF-NOTA-iPD-L1 constant at 1 ng/20 kBq; unlabeled peptides 10 to 0.00001 mM; washed with pH 7.4 buffer (0.1% BSA, 25 mM Tris-HCl, 1 mM CaCl2, 120 mM NaCl); corrected for non-specific binding with …; n = 3
[2] = target: PD-L1 protein on 4T1 cells (programmed cell death ligand-1) (mouse (endogenous in 4T1)) (UniProt Q9EP73)

UniProt Q9EP73, sequence (Q9EP73 19-290): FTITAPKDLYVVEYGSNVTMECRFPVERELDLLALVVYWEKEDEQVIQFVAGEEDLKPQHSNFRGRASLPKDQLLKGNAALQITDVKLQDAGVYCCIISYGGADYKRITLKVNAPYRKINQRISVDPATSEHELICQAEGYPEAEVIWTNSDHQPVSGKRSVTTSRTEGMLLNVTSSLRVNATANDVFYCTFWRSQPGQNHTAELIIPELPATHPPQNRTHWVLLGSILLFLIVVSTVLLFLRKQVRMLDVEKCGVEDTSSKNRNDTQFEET

AlCl-NOTA-iPD-L1 (peptide)
IC50 [1]: 9.27 nM

WL12 (peptide)
IC50 [1]: 6.08 nM

[18F]AlF-NOTA-iPD-L1 (peptide)
tumor uptake at 1 h in mice with 4T1 tumors that received a blocking dose of cold iPD-L1 30 min before (% ID/g) [2]: 1.81 % ID/g
tumor uptake in mice with induced PD-L1-positive 4T1 tumors, 1, 2 and 3 h after injection (% ID/g) [2]: 6.54 % ID/g
